# Test results as given in paper PMC10374065 (PLOS Pathogens, 2023).
# B1: purified recombinant T7-tagged vIRF-1 (natural protein)
# chain: MDPGQRPNPFGAPGAIPKKPCLSQGSPGTSGSGAPCDEPSRSESPGEGPSGTGGSAAAGDITRQAVVAAITEWSRTRQLRISTGASEGKASIKDWIVCQVNSGKFPGVEWEDEERTRFRIPVTPLADPCFEWRRDGELGVVYIRERGNMPVDASFKGTRGRRRMLAALRRTRGLQEIGKGISQDGHHFLVFRVRKPEEEQCVECGVVAGAVHDFNNMARLLQEGFFSPGQCLPGEIVTPVPSCTTAEGQEAVIDWGRLFIRMYYNGEQVHELLTTSQSGCRISSALRRDPAVHYCAVGSPGQVWLPNVPNLACEIAKRELCDTLDACAKGILLTSSCNGIFCVCYHNGPVHFIGNTVPPDSGPLLLPQGKPTRIFNPNTFLVGLANSPLPAPSHVTCPLVKLWLGKPVAVGKLEPHAPSPRDFAARCSNFSDACVVLEIMPKPLWDAMQ
# notes: source: purified recombinant protein; not shown: T7, C-terminal, kept
# Tests used:
# Test in all cases: pull-down
# Details in all cases: both partners purified
# [1] = biological target: B1
# GST-LC3B E41K = GST-LC3B E41K (human, UniProt Q9GZQ8 1-120, E41K)
# GST-GABARAPL1 = biological target: T1, GST-GABARAPL1 (human, UniProt Q9H0R8 1-117)
# T1 construct: also called GABARAP-like 1; GL1
# T1 sequence (Q9H0R8 whole entry): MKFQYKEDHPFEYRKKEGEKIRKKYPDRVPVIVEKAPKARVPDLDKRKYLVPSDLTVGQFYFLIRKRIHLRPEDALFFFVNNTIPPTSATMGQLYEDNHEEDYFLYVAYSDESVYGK
# GST-LC3B D19E = GST-LC3B D19E (human, UniProt Q9GZQ8 1-120, D19E)
# GST-LC3B L22K = GST-LC3B L22K (human, UniProt Q9GZQ8 1-120, L22K)
# [2] = biological target: T2, purified recombinant T7-tagged GABARAPL1 (human, UniProt Q9H0R8 1-117)
# T2 construct: also called T7-GABARAPL1
binder,measurement,setting,value
"GST-GABARAP (natural protein, human, UniProt O95166 1-117, looked up, also called γ-amino-butyric acid receptor-associated protein) MKFVYKEEHPFEKRRSEGEKIRKKYPDRVPVIVEKAPKARIGDLDKKKYLVPSDLTVGQFYFLIRKRIHLRAEDALFFFVNNVIPPTSATMGQLYQEHHEEDFFLYIAYSDESVYGL",binding result,[1],binds
B1,binding result,GST-LC3B E41K,binds
same,binding result,GST-GABARAPL1,binds
same,binding result,GST-LC3B D19E,binds
same,binding result,GST-LC3B L22K,binds
GST-fused full-length (FL) vIRF-1 (natural protein) MDPGQRPNPFGAPGAIPKKPCLSQGSPGTSGSGAPCDEPSRSESPGEGPSGTGGSAAAGDITRQAVVAAITEWSRTRQLRISTGASEGKASIKDWIVCQVNSGKFPGVEWEDEERTRFRIPVTPLADPCFEWRRDGELGVVYIRERGNMPVDASFKGTRGRRRMLAALRRTRGLQEIGKGISQDGHHFLVFRVRKPEEEQCVECGVVAGAVHDFNNMARLLQEGFFSPGQCLPGEIVTPVPSCTTAEGQEAVIDWGRLFIRMYYNGEQVHELLTTSQSGCRISSALRRDPAVHYCAVGSPGQVWLPNVPNLACEIAKRELCDTLDACAKGILLTSSCNGIFCVCYHNGPVHFIGNTVPPDSGPLLLPQGKPTRIFNPNTFLVGLANSPLPAPSHVTCPLVKLWLGKPVAVGKLEPHAPSPRDFAARCSNFSDACVVLEIMPKPLWDAMQ,binding result,[2],binds
